According to patent US10435668:

Experiments:
[1] = biological target: 2C T cell receptor on CD8+ T cells of 2C TCR transgenic mice (mouse); assay: flow cytometry off-rate assay on naive 2C T cells, APC-labeled MHC-Ig, 1B2 added to prevent re-binding, exponential fit
[2] = biological target: 2C T cell receptor on CD8+ T cells of 2C TCR transgenic mice (mouse); assay: estimated from dissociation data, activated 2C T cells
[3] = biological target: 2C T cell receptor on CD8+ T cells of 2C TCR transgenic mice (mouse); assay: flow cytometry off-rate assay on activated 2C T cells, derived from off-rate
[4] = biological target: 2C T cell receptor on CD8+ T cells of 2C TCR transgenic mice (mouse); assay: flow cytometry off-rate assay on naive 2C T cells, derived from off-rate
[5] = biological target: 2C T cell receptor on CD8+ T cells of 2C TCR transgenic mice (mouse); assay: estimated from dissociation data, naive 2C T cells; one contact is assumed for the dimer on naive cells
[6] = biological target: 2C T cell receptor on CD8+ T cells of 2C TCR transgenic mice (mouse); assay: flow cytometry off-rate assay on activated 2C T cells, APC-labeled MHC-Ig, 1B2 added to prevent re-binding, exponential fit
[7] = biological target: 2C T cell receptor on CD8+ T cells of 2C TCR transgenic mice (mouse); assay: flow cytometry off-rate assay on activated 2C T cells, APC-labeled nanoparticles bearing K^b-SIY alone, 1B2 added to prevent re-binding, exponential fit
[8] = biological target: 2C T cell receptor on CD8+ T cells of 2C TCR transgenic mice (mouse); assay: flow cytometry, Alexa 647 labeled particles bound to naive CD44lo 2C T cells
[9] = biological target: 2C T cell receptor on CD8+ T cells of 2C TCR transgenic mice (mouse); assay: estimated from dissociation data, naive cells (6.8 contacts)
[10] = biological target: 2C T cell receptor on CD8+ T cells of 2C TCR transgenic mice (mouse); assay: estimated from dissociation data, naive 2C T cells
[11] = biological target: 2C T cell receptor on CD8+ T cells of 2C TCR transgenic mice (mouse); assay: off-rate assay, flow cytometry, activated against naive T cells
[12] = biological target: 2C T cell receptor on CD8+ T cells of 2C TCR transgenic mice (mouse); assay: estimated from dissociation data, activated cells (12.6 contacts)
[13] = biological target: pmel T cell receptor on CD8+ T cells of pMEL TCR transgenic mice (mouse) (UniProt Q60696); assay: flow cytometry, Alexa 647 labeled particles on control non-cognate CD44lo pmel T cells
UniProt Q60696, sequence (Q60696 whole entry): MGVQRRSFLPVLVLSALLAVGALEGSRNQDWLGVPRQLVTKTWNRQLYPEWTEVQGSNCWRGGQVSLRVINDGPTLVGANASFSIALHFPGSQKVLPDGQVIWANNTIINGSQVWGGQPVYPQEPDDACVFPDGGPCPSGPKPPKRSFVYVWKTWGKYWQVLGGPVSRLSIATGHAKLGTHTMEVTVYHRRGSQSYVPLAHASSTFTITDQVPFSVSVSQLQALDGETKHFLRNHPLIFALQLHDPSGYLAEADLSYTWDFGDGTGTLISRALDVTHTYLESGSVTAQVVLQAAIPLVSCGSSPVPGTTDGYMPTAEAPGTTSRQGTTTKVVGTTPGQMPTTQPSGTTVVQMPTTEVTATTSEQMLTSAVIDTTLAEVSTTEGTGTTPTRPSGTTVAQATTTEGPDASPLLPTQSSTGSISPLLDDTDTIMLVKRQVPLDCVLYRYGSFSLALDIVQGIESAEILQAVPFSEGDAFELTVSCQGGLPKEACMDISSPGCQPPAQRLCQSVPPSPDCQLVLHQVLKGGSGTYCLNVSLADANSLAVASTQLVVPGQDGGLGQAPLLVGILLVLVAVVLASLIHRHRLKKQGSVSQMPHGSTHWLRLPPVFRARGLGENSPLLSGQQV

[14] = biological target: 2C T cell receptor on CD8+ T cells of 2C TCR transgenic mice (mouse); assay: flow cytometry off-rate assay on naive 2C T cells, APC-labeled nanoparticles bearing K^b-SIY alone, 1B2 added to prevent re-binding, exponential fit
[15] = biological target: 2C T cell receptor on CD8+ T cells of 2C TCR transgenic mice (mouse); assay: flow cytometry, Alexa 647 labeled particles bound to activated 2C T cells (seven days after peptide activation)
[16] = biological target: 2C T cell receptor on CD8+ T cells of 2C TCR transgenic mice (mouse); assay: equilibrium particle binding assay, flow cytometry, activated against naive T cells

| koff [1] | TCR-MHC Contacts [2] | Half-Life [3] | Half-Life [4] | TCR-MHC Contacts [5] | koff [6] | koff [7] | MFI [8] | percent of MHC-Ig dimers on the particle surface in TCR-MHC contacts [9] | TCR-MHC Contacts [10] | fold slower disassociation from activated than from naive cells [11] | percent of MHC-Ig dimers on the particle surface in TCR-MHC contacts [12] | MFI [13] | koff [14] | MFI [15] | fold fewer nanoparticles bound at equilibrium by activated than by naive cells [16] | Substance |
| --- | --- | --- | --- | --- | --- | --- | --- | --- | --- | --- | --- | --- | --- | --- | --- | --- |
| 0.0089 s⁻¹ | 1.7 contacts | 1.87 min | 1.3 min | 1 contacts | 0.0052 s⁻¹ |  |  |  |  |  |  |  |  |  |  | K^b-SIY MHC-Ig dimer (soluble K^b-Ig loaded with SIY peptide) (from UniProt P01901 22-305) (peptide-MHC) |
|  | 12.6 contacts | 16.4 min | 8.85 min |  |  | 0.0009 s⁻¹ | 179 MFI | 11% | 6.8 contacts | 2 fold | 22% | 21 MFI | 0.002 s⁻¹ | 89 MFI | 2 fold | Nanoparticles bearing K^b-SIY MHC-Ig alone (iron-dextran nanoparticle, no anti-CD28) (from UniProt P01901 22-305) (peptide-MHC) |
